The experiment concerns the target Pf12 (His26 to Ser321) (Plasmodium falciparum) (UniProt C6KSX0). The experiment can be described thus: ITC; Pf12 10 μM in the sample cell; full length Pf41 or Pf41ΔID 100 μM added in 16 injections of 2.4 μL, 180 s apart; 25°C; one-site model; single experiment representative of two. (Isothermal titration calorimetry measures the heat released or taken up as one component is titrated into another.)

What is called Kd is the concentration at which binding is half-saturated. Low values mean higher affinity, high ones lower affinity. A word on the stoichiometry N: it is the number of molecules, sites or subunits per partner or assembly. For the substance “Pf41 full length (mature, Lys21 to Ser378) (from UniProt Q8I1Y0 21-378) (natural protein)”, the Kd is 27.7 nM, the dH was -33.9 kcal/mol and the stoichiometry N was 0.85 Pf41:Pf12.

The values are drawn from publication PMC4587554.
